This data set in a line: total protein half-life in vivo (active degradation + dilution); higher = more stable protein.
Setting [1] is: E. coli NCM3722 delta-clpP delta-lon delta-hslV, growth: N-lim chemostat, doubling time 6 h.
[2] abbreviates: E. coli NCM3722 delta-clpP, growth: N-lim chemostat, doubling time 6 h.
[3] abbreviates: E. coli NCM3722 delta-hslV, growth: N-lim chemostat, doubling time 6 h.
Where [4] appears, read: E. coli NCM3722 delta-lon, growth: N-lim chemostat, doubling time 6 h.
[5] abbreviates: E. coli NCM3722 delta-smpB, growth: N-lim chemostat, doubling time 6 h.
[6] abbreviates: wild type E. coli NCM3722, growth: C-lim chemostat, doubling time 3 h.
Where [7] appears, read: wild type E. coli NCM3722, growth: C-lim chemostat, doubling time 6 h.
The mark [8] stands for this setting: wild type E. coli NCM3722, growth: C-lim chemostat, doubling time 12 h.
[9] abbreviates: wild type E. coli NCM3722, growth: N-lim chemostat, doubling time 6 h.
[10] abbreviates: wild type E. coli NCM3722, growth: N-lim chemostat, doubling time 12 h.
Setting [11] is: wild type E. coli NCM3722, growth: P-lim chemostat, doubling time 6 h.
Where [12] appears, read: wild type E. coli NCM3722, growth: P-lim chemostat, doubling time 12 h.

± gives the standard deviation of the averaged measurements.

As for “MSHRDTLFSAPIARLGDWTFDERVAEVFPDMIQRSVPGYSNIISMIGMLAERFVQPGTQVYDLGCSLGAATLSVRRNIHHDNCKIIAIDNSPAMIERCRRHIDAYKAPTPVDVIEGDIRDIAIENASMVVLNFTLQFLEPSERQALLDKIYQGLNPGGALVLSEKFSFEDAKVGELLFNMHHDFKRANGYSELEISQKRSMLENVMLTDSVETHKARLHNAGFEHSELWFQCFNFGSLVALKAEDAA”, the “total protein half-life in vivo” value reads like this: under setting [1], 4.36 ± 0.1 h; under setting [2], 4.266 ± 0.023 h; under setting [3], 3.422 ± 0.01 h; under setting [4], 4.69 ± 0.25 h; under setting [5], 3.28 ± 0.41 h; under setting [6], 2.85 ± 0.079 h. The “total protein half-life in vivo” value is 4.75 ± 0.061 h under setting [7]; 6.64 ± 0.99 h under setting [8]; 3.17 ± 0.74 h under setting [9]; 4.86 ± 0.5 h under setting [10]; 4.66 ± 0.48 h under setting [11]; 9.24 ± 0.053 h under setting [12].

As for “MIFSVDKVRADFPVLSREVNGLPLAYLDSAASAQKPSQVIDAEAEFYRHGYAAVHRGIHTLSAQATEKMENVRKRASLFINARSAEELVFVRGTTEGINLVANSWGNSNVRAGDNIIISQMEHHANIVPWQMLCARVGAELRVIPLNPDGTLQLETLPTLFDEKTRLLAITHVSNVLGTENPLAEMITLAHQHGAKVLVDGAQAVMHHPVDVQALDCDFYVFSGHKLYGPTGIGILYVKEALLQEMPPWEGGGSMIATVSLSEGTTWTKAPWRFEAGTPNTGGIIGLGAALEYVSALGLNNIAEYEQNLMHYALSQLESVPDLTLYGPQNRLGVIAFNLGKHHAYDVGSFLDNYGIAVRTGHHCAMPLMAYYNVPAMCRASLAMYNTHEEVDRLVTGLQRIHRLLG”, the “total protein half-life in vivo” value under setting [1] came out at 3.84 ± 0.34 h; the “total protein half-life in vivo” value under setting [2] was 3.43 ± 0.26 h; the “total protein half-life in vivo” value under setting [3] was determined as 3.39 ± 0.22 h; the “total protein half-life in vivo” value under setting [4] came to 3.44 ± 0.05 h; the “total protein half-life in vivo” value under setting [5] worked out at 3.41 ± 0.12 h; the “total protein half-life in vivo” value under setting [6] was determined as 3.19 ± 0.48 h. The “total protein half-life in vivo” value worked out at 8.7 ± 0.18 h under setting [8]; 3.38 ± 0.26 h under setting [9]; 5.21 ± 0.034 h under setting [10]; 6.38 ± 0.54 h under setting [11]; 11.3 ± 1.4 h under setting [12].

On to “MDKSKRHLAWWVVGLLAVAAIVAWWLLRPAGVPEGFAVSNGRIEATEVDIASKIAGRIDTILVKEGKFVREGEVLAKMDTRVLQEQRLEAIAQIKEAQSAVAAAQALLEQRQSETRAAQSLVNQRQAELDSVAKRHTRSRSLAQRGAISAQQLDDDRAAAESARAALESAKAQVSASKAAIEAARTNIIQAQTRVEAAQATERRIAADIDDSELKAPRDGRVQYRVAEPGEVLAAGGRVLNMVDLSDVYMTFFLPTEQAGTLKLGGEARLILDAAPDLRIPATISFVASVAQFTPKTVETSDERLKLMFRVKARIPPELLQQHLEYVKTGLPGVAWVRVNEELPWPDDLVVRLPQ”, for which the “total protein half-life in vivo” value was found to be 7.13 ± 1.2 h under setting [1]; 6.23 ± 0.4 h under setting [2]; 6.68 ± 0.17 h under setting [3]; 6.78 ± 0.59 h under setting [4]; 5.93 ± 0.0093 h under setting [5]; 3.27 ± 0.32 h under setting [6]. The “total protein half-life in vivo” value under setting [7] is 6.21 ± 0.2 h; the “total protein half-life in vivo” value under setting [8] worked out at 13 ± 1 h; the “total protein half-life in vivo” value under setting [9] is 6.37 ± 0.43 h; the “total protein half-life in vivo” value under setting [10] was 13.5 ± 1.4 h; the “total protein half-life in vivo” value under setting [11] is 6.03 ± 0.35 h; the “total protein half-life in vivo” value under setting [12] is 12.9 ± 0.49 h.

For “MLKFIQNNREITALLAVVLLFVLPGFLDRQYLSVQTLTMVYSSAQILILLAMGATLVMLTRNIDVSVGSITGMCAVLLGMLLNAGYSLPVACVATLLLGLLAGFFNGVLVAWLKIPAIVATLGTLGLYRGIMLLWTGGKWIEGLPAELKQLSAPLLLGVSAIGWLTIILVAFMAWLLAKTAFGRSFYATGDNLQGARQLGVRTEAIRIVAFSLNGCMAALAGIVFASQIGFIPNQTGTGLEMKAIAACVLGGISLLGGSGAIIGAVLGAWFLTQIDSVLVLLRIPAWWNDFIAGLVLLAVLVFDGRLRCALERNLRRQKYARFMTPPPSVKPASSGKKREAA”, the “total protein half-life in vivo” value came out at 3.42 h under setting [6], 5.06 ± 1.6 h under setting [7] and 7.51 ± 1.3 h under setting [8].

With “MNRLPSSASALACSAHALNLIEKRTLDHEEMKALNREVIEYFKEHVNPGFLEYRKSVTAGGDYGAVEWQAGSLNTLVDTQGQEFIDCLGGFGIFNVGHRNPVVVSAVQNQLAKQPLHSQELLDPLRAMLAKTLAALTPGKLKYSFFCNSGTESVEAALKLAKAYQSPRGKFTFIATSGAFHGKSLGALSATAKSTFRKPFMPLLPGFRHVPFGNIEAMRTALNECKKTGDDVAAVILEPIQGEGGVILPPPGYLTAVRKLCDEFGALMILDEVQTGMGRTGKMFACEHENVQPDILCLAKALGGGVMPIGATIATEEVFSVLFDNPFLHTTTFGGNPLACAAALATINVLLEQNLPAQAEQKGDMLLDGFRQLAREYPDLVQEARGKGMLMAIEFVDNEIGYNFASEMFRQRVLVAGTLNNAKTIRIEPPLTLTIEQCELVIKAARKALAAMRVSVEEA”, the “total protein half-life in vivo” value was found to be 4.74 ± 0.26 h under setting [1]; 3.09 ± 0.83 h under setting [2]; 0.385 ± 0.062 h under setting [3]; 0.49 ± 0.12 h under setting [4]; 0.289 ± 0.0059 h under setting [5]; 0.378 ± 0.04 h under setting [6]. Also, the “total protein half-life in vivo” value under setting [7] is 0.631 ± 0.033 h; the “total protein half-life in vivo” value under setting [8] is 1.06 ± 0.45 h; the “total protein half-life in vivo” value under setting [9] came to 0.848 ± 0.61 h; the “total protein half-life in vivo” value under setting [10] came to 0.594 ± 0.085 h; the “total protein half-life in vivo” value under setting [11] worked out at 0.667 ± 0.37 h; the “total protein half-life in vivo” value under setting [12] was found to be 1.3 ± 0.8 h.

Consider “MSQALKNLLTLLNLEKIEEGLFRGQSEDLGLRQVFGGQVVGQALYAAKETVPEERLVHSFHSYFLRPGDSKKPIIYDVETLRDGNSFSARRVAAIQNGKPIFYMTASFQAPEAGFEHQKTMPSAPAPDGLPSETQIAQSLAHLLPPVLKDKFICDRPLEVRPVEFHNPLKGHVAEPHRQVWIRANGSVPDDLRVHQYLLGYASDLNFLPVALQPHGIGFLEPGIQIATIDHSMWFHRPFNLNEWLLYSVESTSASSARGFVRGEFYTQDGVLVASTVQEGVMRNHN [P0AGG2]”, for which the “total protein half-life in vivo” value was found to be 5.35 ± 0.059 h under setting [1]; 5.17 ± 0.18 h under setting [2]; 4.986 ± 0.04 h under setting [3]; 5.37 ± 0.47 h under setting [4]; 5.17 ± 0.67 h under setting [5]; 6.42 ± 0.37 h under setting [7]. For the same sequence, the “total protein half-life in vivo” value is 10.69 ± 0.082 h under setting [8]; 5.04 ± 0.13 h under setting [9]; 8.59 ± 0.29 h under setting [10]; 5.922 ± 0.027 h under setting [11]; 13.018 ± 0.0091 h under setting [12].

On to “MESLASLYKNHIATLQERTRDALARFKLDALLIHSGELFNVFLDDHPYPFKVNPQFKAWVPVTQVPNCWLLVDGVNKPKLWFYLPVDYWHNVEPLPTSFWTEDVEVIALPKADGIGSLLPAARGNIGYIGPVPERALQLGIEASNINPKGVIDYLHYYRSFKTEYELACMREAQKMAVNGHRAAEEAFRSGMSEFDINIAYLTATGHRDTDVPYSNIVALNEHAAVLHYTKLDHQAPEEMRSFLLDAGAEYNGYAADLTRTWSAKSDNDYAQLVKDVNDEQLALIATMKAGVSYVDYHIQFHQRIAKLLRKHQIITDMSEEAMVENDLTGPFMPHGIGHPLGLQVHDVAGFMQDDSGTHLAAPAKYPYLRCTRILQPGMVLTIEPGIYFIESLLAPWREGQFSKHFNWQKIEALKPFGGIRIEDNVVIHENNVENMTRDLKLA”, for which the “total protein half-life in vivo” value under setting [1] was 5.4 ± 0.69 h; the “total protein half-life in vivo” value under setting [2] was found to be 4.93 ± 0.32 h; the “total protein half-life in vivo” value under setting [3] is 5.12 ± 0.4 h; the “total protein half-life in vivo” value under setting [4] was 5.92 ± 0.92 h; the “total protein half-life in vivo” value under setting [5] stood at 4.33 ± 0.059 h; the “total protein half-life in vivo” value under setting [6] worked out at 3.21 ± 0.37 h. In addition, the “total protein half-life in vivo” value under setting [7] was found to be 5.72 ± 0.084 h; the “total protein half-life in vivo” value under setting [8] was 10.2 ± 1.3 h; the “total protein half-life in vivo” value under setting [9] was 4.77 ± 0.23 h; the “total protein half-life in vivo” value under setting [10] is 8.64 ± 0.18 h; the “total protein half-life in vivo” value under setting [11] is 6.13 ± 0.18 h; the “total protein half-life in vivo” value under setting [12] was found to be 11.9 ± 0.27 h.
